These are literature values, as cited in PMC6769993, “Immunomodulatory Functions of the Human Cathelicidin LL-37 (aa 13–31)-Derived Peptides are Associated with Predicted α-Helical Propensity and Hydrophobic Index” (Biomolecules, 2019).

The text on the data set: The minimum region of LL-37 required for its immunomodulatory functions is an internal sequence from amino acids 13–31 [13], known as peptide IG-19. […] IG-19 suppresses inflammatory cytokine production by engaging various signaling intermediates in the presence of bacterial endotoxin or cytokine IL-32 [10, 13, 14]. Both LL-37 and IG-19 also share structural similarities; these are both α-helical amphipathic peptides with net positive charges of +6 and +5, respectively. Previous s ...

As to “LL-37: the only human cathelicidin cationic host defense peptide, 37 amino acids”, the Net positive charge result was “+6”.
